± gives the uncertainty stated by the source.
B1: Max-interacting protein 1, residues 70 to 120; numbered along this chain, P50539 (parent)
chain: STHNELEKNRRAHLRLCLERLKVLIPLGPDCTRHTTLGLLNKAKAHIKKLE

Variants of: B1
Experiment: abundance fitness (aPCA) (normalised: wild type 0, dead -1); higher = more abundant; growth selection in yeast, the domain comes from the species named
Conditions: Homo sapiens

**Q.** With STDNELEKNRRAHLRLCLERLKVLIPLGPDCTRHTTLGLLNKAKAHIKKLE [H3D] as the variant, how does the abundance fitness read?
**A.** The abundance fitness was 0.023 ± 0.15.

**Q.** For STENELEKNRRAHLRLCLERLKVLIPLGPDCTRHTTLGLLNKAKAHIKKLE [H3E], which abundance fitness is on record?
**A.** The abundance fitness was -0.047 ± 0.11.

**Q.** For STFNELEKNRRAHLRLCLERLKVLIPLGPDCTRHTTLGLLNKAKAHIKKLE [H3F], which abundance fitness is on record?
**A.** The abundance fitness was 0.168 ± 0.2.

**Q.** Which abundance fitness does the source give for STGNELEKNRRAHLRLCLERLKVLIPLGPDCTRHTTLGLLNKAKAHIKKLE [H3G] here?
**A.** Its abundance fitness is 0.197 ± 0.08.

**Q.** With STKNELEKNRRAHLRLCLERLKVLIPLGPDCTRHTTLGLLNKAKAHIKKLE [H3K] as the variant, how does the abundance fitness read?
**A.** The abundance fitness was 0.178 ± 0.14.

**Q.** For STMNELEKNRRAHLRLCLERLKVLIPLGPDCTRHTTLGLLNKAKAHIKKLE [H3M], which abundance fitness is on record?
**A.** Its abundance fitness is 0.152 ± 0.12.

**Q.** With STNNELEKNRRAHLRLCLERLKVLIPLGPDCTRHTTLGLLNKAKAHIKKLE [H3N] as the variant, how does the abundance fitness read?
**A.** Its abundance fitness is -0.162 ± 0.17.

**Q.** Which abundance fitness does the source give for STPNELEKNRRAHLRLCLERLKVLIPLGPDCTRHTTLGLLNKAKAHIKKLE [H3P] here?
**A.** Its abundance fitness is 0.018 ± 0.12.

**Q.** With STQNELEKNRRAHLRLCLERLKVLIPLGPDCTRHTTLGLLNKAKAHIKKLE [H3Q] as the variant, how does the abundance fitness read?
**A.** Its abundance fitness is -0.023 ± 0.13.

**Q.** For STSNELEKNRRAHLRLCLERLKVLIPLGPDCTRHTTLGLLNKAKAHIKKLE [H3S], which abundance fitness is on record?
**A.** The abundance fitness was 0.065 ± 0.1.

**Q.** Which abundance fitness does the source give for STVNELEKNRRAHLRLCLERLKVLIPLGPDCTRHTTLGLLNKAKAHIKKLE [H3V] here?
**A.** Its abundance fitness is -0.053 ± 0.11.

**Q.** With STWNELEKNRRAHLRLCLERLKVLIPLGPDCTRHTTLGLLNKAKAHIKKLE [H3W] as the variant, how does the abundance fitness read?
**A.** The abundance fitness was -0.549 ± 0.14.

**Q.** For STYNELEKNRRAHLRLCLERLKVLIPLGPDCTRHTTLGLLNKAKAHIKKLE [H3Y], which abundance fitness is on record?
**A.** The abundance fitness was -0.078 ± 0.21.

**Q.** With STHAELEKNRRAHLRLCLERLKVLIPLGPDCTRHTTLGLLNKAKAHIKKLE [N4A] as the variant, how does the abundance fitness read?
**A.** The abundance fitness was -0.258 ± 0.096.

**Q.** Which abundance fitness does the source give for STHCELEKNRRAHLRLCLERLKVLIPLGPDCTRHTTLGLLNKAKAHIKKLE [N4C] here?
**A.** The abundance fitness was -0.33 ± 0.13.

**Q.** Which abundance fitness does the source give for STHDELEKNRRAHLRLCLERLKVLIPLGPDCTRHTTLGLLNKAKAHIKKLE [N4D] here?
**A.** Its abundance fitness is -0.134 ± 0.15.

**Q.** With STHEELEKNRRAHLRLCLERLKVLIPLGPDCTRHTTLGLLNKAKAHIKKLE [N4E] as the variant, how does the abundance fitness read?
**A.** Its abundance fitness is -0.142 ± 0.17.

**Q.** Which abundance fitness does the source give for STHFELEKNRRAHLRLCLERLKVLIPLGPDCTRHTTLGLLNKAKAHIKKLE [N4F] here?
**A.** Its abundance fitness is -0.713 ± 0.2.

**Q.** Which abundance fitness does the source give for STHGELEKNRRAHLRLCLERLKVLIPLGPDCTRHTTLGLLNKAKAHIKKLE [N4G] here?
**A.** Its abundance fitness is -0.223 ± 0.1.

**Q.** For STHHELEKNRRAHLRLCLERLKVLIPLGPDCTRHTTLGLLNKAKAHIKKLE [N4H], which abundance fitness is on record?
**A.** The abundance fitness was -0.381 ± 0.23.

**Q.** Which abundance fitness does the source give for STHIELEKNRRAHLRLCLERLKVLIPLGPDCTRHTTLGLLNKAKAHIKKLE [N4I] here?
**A.** Its abundance fitness is 0.278 ± 0.21.

**Q.** Which abundance fitness does the source give for STHKELEKNRRAHLRLCLERLKVLIPLGPDCTRHTTLGLLNKAKAHIKKLE [N4K] here?
**A.** The abundance fitness was -0.168 ± 0.13.

**Q.** For STHLELEKNRRAHLRLCLERLKVLIPLGPDCTRHTTLGLLNKAKAHIKKLE [N4L], which abundance fitness is on record?
**A.** Its abundance fitness is -0.48 ± 0.092.

**Q.** For STHMELEKNRRAHLRLCLERLKVLIPLGPDCTRHTTLGLLNKAKAHIKKLE [N4M], which abundance fitness is on record?
**A.** The abundance fitness was -0.289 ± 0.12.

**Q.** With STHPELEKNRRAHLRLCLERLKVLIPLGPDCTRHTTLGLLNKAKAHIKKLE [N4P] as the variant, how does the abundance fitness read?
**A.** Its abundance fitness is -0.276 ± 0.13.

**Q.** Which abundance fitness does the source give for STHQELEKNRRAHLRLCLERLKVLIPLGPDCTRHTTLGLLNKAKAHIKKLE [N4Q] here?
**A.** The abundance fitness was 0.041 ± 0.15.

**Q.** For STHRELEKNRRAHLRLCLERLKVLIPLGPDCTRHTTLGLLNKAKAHIKKLE [N4R], which abundance fitness is on record?
**A.** Its abundance fitness is -0.255 ± 0.093.

**Q.** Which abundance fitness does the source give for STHTELEKNRRAHLRLCLERLKVLIPLGPDCTRHTTLGLLNKAKAHIKKLE [N4T] here?
**A.** The abundance fitness was 0.135 ± 0.13.

**Q.** With STHVELEKNRRAHLRLCLERLKVLIPLGPDCTRHTTLGLLNKAKAHIKKLE [N4V] as the variant, how does the abundance fitness read?
**A.** The abundance fitness was -0.404 ± 0.1.

**Q.** For STHYELEKNRRAHLRLCLERLKVLIPLGPDCTRHTTLGLLNKAKAHIKKLE [N4Y], which abundance fitness is on record?
**A.** The abundance fitness was -0.547 ± 0.14.

**Q.** Which abundance fitness does the source give for STHNCLEKNRRAHLRLCLERLKVLIPLGPDCTRHTTLGLLNKAKAHIKKLE [E5C] here?
**A.** The abundance fitness was -0.991 ± 0.32.

**Q.** For STHNDLEKNRRAHLRLCLERLKVLIPLGPDCTRHTTLGLLNKAKAHIKKLE [E5D], which abundance fitness is on record?
**A.** The abundance fitness was -0.021 ± 0.15.

**Q.** Which abundance fitness does the source give for STHNFLEKNRRAHLRLCLERLKVLIPLGPDCTRHTTLGLLNKAKAHIKKLE [E5F] here?
**A.** The abundance fitness was -0.514 ± 0.29.

**Q.** Which abundance fitness does the source give for STHNGLEKNRRAHLRLCLERLKVLIPLGPDCTRHTTLGLLNKAKAHIKKLE [E5G] here?
**A.** Its abundance fitness is -0.244 ± 0.1.

**Q.** With STHNILEKNRRAHLRLCLERLKVLIPLGPDCTRHTTLGLLNKAKAHIKKLE [E5I] as the variant, how does the abundance fitness read?
**A.** Its abundance fitness is -0.185 ± 0.17.

**Q.** With STHNKLEKNRRAHLRLCLERLKVLIPLGPDCTRHTTLGLLNKAKAHIKKLE [E5K] as the variant, how does the abundance fitness read?
**A.** The abundance fitness was -0.232 ± 0.17.

**Q.** For STHNMLEKNRRAHLRLCLERLKVLIPLGPDCTRHTTLGLLNKAKAHIKKLE [E5M], which abundance fitness is on record?
**A.** The abundance fitness was 0.119 ± 0.11.

**Q.** Which abundance fitness does the source give for STHNNLEKNRRAHLRLCLERLKVLIPLGPDCTRHTTLGLLNKAKAHIKKLE [E5N] here?
**A.** The abundance fitness was 0.282 ± 0.17.

**Q.** Which abundance fitness does the source give for STHNPLEKNRRAHLRLCLERLKVLIPLGPDCTRHTTLGLLNKAKAHIKKLE [E5P] here?
**A.** The abundance fitness was -0.15 ± 0.11.

**Q.** For STHNQLEKNRRAHLRLCLERLKVLIPLGPDCTRHTTLGLLNKAKAHIKKLE [E5Q], which abundance fitness is on record?
**A.** Its abundance fitness is -0.193 ± 0.12.

**Q.** For STHNRLEKNRRAHLRLCLERLKVLIPLGPDCTRHTTLGLLNKAKAHIKKLE [E5R], which abundance fitness is on record?
**A.** The abundance fitness was -0.27 ± 0.097.

**Q.** Which abundance fitness does the source give for STHNSLEKNRRAHLRLCLERLKVLIPLGPDCTRHTTLGLLNKAKAHIKKLE [E5S] here?
**A.** The abundance fitness was -0.205 ± 0.11.

**Q.** For STHNTLEKNRRAHLRLCLERLKVLIPLGPDCTRHTTLGLLNKAKAHIKKLE [E5T], which abundance fitness is on record?
**A.** The abundance fitness was -0.006 ± 0.13.

**Q.** Which abundance fitness does the source give for STHNWLEKNRRAHLRLCLERLKVLIPLGPDCTRHTTLGLLNKAKAHIKKLE [E5W] here?
**A.** The abundance fitness was -0.435 ± 0.14.

**Q.** With STHNYLEKNRRAHLRLCLERLKVLIPLGPDCTRHTTLGLLNKAKAHIKKLE [E5Y] as the variant, how does the abundance fitness read?
**A.** The abundance fitness was -0.069 ± 0.14.

**Q.** For STHNEAEKNRRAHLRLCLERLKVLIPLGPDCTRHTTLGLLNKAKAHIKKLE [L6A], which abundance fitness is on record?
**A.** The abundance fitness was -0.171 ± 0.1.

**Q.** With STHNECEKNRRAHLRLCLERLKVLIPLGPDCTRHTTLGLLNKAKAHIKKLE [L6C] as the variant, how does the abundance fitness read?
**A.** Its abundance fitness is -0.123 ± 0.13.

**Q.** With STHNEDEKNRRAHLRLCLERLKVLIPLGPDCTRHTTLGLLNKAKAHIKKLE [L6D] as the variant, how does the abundance fitness read?
**A.** The abundance fitness was -0.066 ± 0.17.

**Q.** For STHNEEEKNRRAHLRLCLERLKVLIPLGPDCTRHTTLGLLNKAKAHIKKLE [L6E], which abundance fitness is on record?
**A.** Its abundance fitness is -0.574 ± 0.14.

**Q.** With STHNEFEKNRRAHLRLCLERLKVLIPLGPDCTRHTTLGLLNKAKAHIKKLE [L6F] as the variant, how does the abundance fitness read?
**A.** Its abundance fitness is -0.228 ± 0.17.

**Q.** Which abundance fitness does the source give for STHNEGEKNRRAHLRLCLERLKVLIPLGPDCTRHTTLGLLNKAKAHIKKLE [L6G] here?
**A.** The abundance fitness was 0.203 ± 0.085.

— the Human Domainome abundance scans (Beltran et al. 2025)
